# B1: VRC01 from transiently transformed Nicotiana benthamiana plants (antibody, V domains shown)
# VH: QVQLVQSGGQMKKPGESMRISCRASGYEFIDCTLNWIRLAPGKRPEWMGWLKPRGGAVNYARPLQGRVTMTRDVYSDTAFLELRSLTVDDTAVYFCTRGKNCDYNWDFEHWGRGTPVIVSS
# VL: EIVLTQSPGTLSLSPGETAIISCRTSQYGSLAWYQQRPGQAPRLVIYSGSTRAAGIPDRFSGSRWGPDYNLTISNLESGDFGVYYCQQYEFFGQGTKVQVD
# notes: IgG1 kappa; plant-codon-optimized genes, both chains on one pTRAk.2 vector; also called VRC01 transient; transient plant-derived VRC01
# B2: VRC01 from HEK cells (antibody, V domains shown)
# VH: B1 VH
# VL: B1 VL
# notes: as the heavy chain of m1; as the light chain of m1; IgG1 kappa; also called VRC01 HEK; HEK-cells-derived VRC01; source: HEK cells, purified
# B3: VRC01 from stably transformed (transgenic) Nicotiana tabacum plants (antibody, V domains shown)
# VH: B1 VH
# VL: B1 VL
# notes: as the heavy chain of m1; as the light chain of m1; IgG1 kappa; source: N. tabacum cv
# Molecular target: T1, HIV-1 envelope glycoprotein gp120 IIIB (HIV-1 group M subtype B, isolate IIIB …, UniProt P03375)
# T1 construct: gp120 surface glycoprotein, cut product of the HIV-1 Env precursor, isolate IIIB; also called recombinant gp120 III; HIV gp120 IIIB; source: purified recombinant; NIH ARRRP
# Test: SPR; Protein A amine-coupled on a CM5 chip, VRC01 captured to about 100 RU, gp120 IIIB injected at 20 ug/mL; BIAcore X-100, 25 °C, HBS-EP+ (10 mM HEPES pH 7.4, 150 mM NaCl, 3 mM EDTA, 0.05% surfactant P-20); 1:1 Langmuir fit; triplicate
# Conditions: both partners purified
row,Binder,Kd [nM]
1,B1,1.68
2,B2,0.66
3,B3,1.39
